Results taken from IntAct's records for PubMed 9488481.

B1: Death-associated protein kinase 3 (Mus musculus), O54784 (parent)
chain: MSTFRQEDVEDHYEMGEELGSGQFAIVRKCQQKGTGMEYAAKFIKKRRLPSSRRGVSREEIEREVSILREIRHPNIITLHDVFENKTDVVLILELVSGGELFDFLAEKESLTEDEATQFLKQILDGVHYLHSKRIAHFDLKPENIMLLDKHAASPRIKLIDFGIAHRIEAGSEFKNIFGTPEFVAPEIVNYEPLGLEADMWSIGVITYILLSGASPFLGETKQETLTNISAVNYDFDEEYFSSTSELAKDFIRRLLVKDPKRRMTIAQSLEHSWIKVRRREDGARKPERRRLRAARLREYSLKSHSSMPRNTSYASFERFSRVLEDVAAAEQGLRELQRGRRQCRERVCALRAAAEQREARCRDGSAGLGRDLRRLRTELGRTEALRTRAQEEARAALLGAGGLKRRLCRLENRYDALAAQVAAEVQFVRDLVRALEQERLQAECGVR
partner: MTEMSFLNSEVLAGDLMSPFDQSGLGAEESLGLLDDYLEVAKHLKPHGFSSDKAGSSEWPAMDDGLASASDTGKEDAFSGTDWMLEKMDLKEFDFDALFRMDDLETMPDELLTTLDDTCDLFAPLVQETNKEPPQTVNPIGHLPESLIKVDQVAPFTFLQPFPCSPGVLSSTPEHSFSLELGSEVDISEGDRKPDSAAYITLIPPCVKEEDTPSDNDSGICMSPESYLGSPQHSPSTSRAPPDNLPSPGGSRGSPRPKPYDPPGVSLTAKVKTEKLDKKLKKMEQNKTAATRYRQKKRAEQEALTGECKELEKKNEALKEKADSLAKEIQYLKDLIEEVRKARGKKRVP

Variants of: B1
Conditions: with atf4_mouse Atf4, Q06507

How did the “effect of a mutation on the interaction” value turn out when V422A;V429A;L436A was run?
Its value is “disrupting interaction”.
